In patent US20260193293A1, “PEPTIDES CAPABLE OF INHIBITING PROTEIN-PROTEIN INTERACTIONS AT GABAB1A SUBUNIT AND USES THEREOF” (UNIVERSITY OF COPENHAGEN, priority 2022, published 2026) one finds Ki data, which are given here for 26 molecules.

Non-standard residues stand in square brackets, D forms with d. NMeW = CN[C@@H](Cc1c[nH]c2ccccc12)C(=O)O; NMeT = CN[C@H](C(=O)O)[C@@H](C)O; NMeE = CN[C@@H](CCC(=O)O)C(=O)O; NMeD = CN[C@@H](CC(=O)O)C(=O)O; Sar = CNCC(=O)O

B1: …(N-Me-D) (peptide)
peptide: Ac-ETEFIAWGPTGDE[NMeD]-NH2
SMILES: CC[C@H](C)[C@H](NC(=O)[C@H](Cc1ccccc1)NC(=O)[C@H](CCC(=O)O)NC(=O)[C@@H](NC(=O)[C@H](CCC(=O)O)NC(C)=O)[C@@H](C)O)C(=O)N[C@@H](C)C(=O)N[C@@H](Cc1c[nH]c2ccccc12)C(=O)NCC(=O)N1CCC[C@H]1C(=O)N[C@H](C(=O)NCC(=O)N[C@@H](CC(=O)O)C(=O)N[C@@H](CCC(=O)O)C(=O)N(C)[C@@H](CC(=O)O)C(N)=O)[C@@H](C)O
B2: …(N-Me-E)D (peptide)
peptide: Ac-ETEFIAWGPTGD[NMeE]D-NH2
SMILES: CC[C@H](C)[C@H](NC(=O)[C@H](Cc1ccccc1)NC(=O)[C@H](CCC(=O)O)NC(=O)[C@@H](NC(=O)[C@H](CCC(=O)O)NC(C)=O)[C@@H](C)O)C(=O)N[C@@H](C)C(=O)N[C@@H](Cc1c[nH]c2ccccc12)C(=O)NCC(=O)N1CCC[C@H]1C(=O)N[C@H](C(=O)NCC(=O)N[C@@H](CC(=O)O)C(=O)N(C)[C@@H](CCC(=O)O)C(=O)N[C@@H](CC(=O)O)C(N)=O)[C@@H](C)O
B3: …(N-Me-T)GDED (peptide)
peptide: Ac-ETEFIAWGP[NMeT]GDED-NH2
SMILES: CC[C@H](C)[C@H](NC(=O)[C@H](Cc1ccccc1)NC(=O)[C@H](CCC(=O)O)NC(=O)[C@@H](NC(=O)[C@H](CCC(=O)O)NC(C)=O)[C@@H](C)O)C(=O)N[C@@H](C)C(=O)N[C@@H](Cc1c[nH]c2ccccc12)C(=O)NCC(=O)N1CCC[C@H]1C(=O)N(C)[C@H](C(=O)NCC(=O)N[C@@H](CC(=O)O)C(=O)N[C@@H](CCC(=O)O)C(=O)N[C@@H](CC(=O)O)C(N)=O)[C@@H](C)O
B4: …(N-Me-G)DED (peptide)
peptide: Ac-ETEFIAWGPT[Sar]DED-NH2
SMILES: CC[C@H](C)[C@H](NC(=O)[C@H](Cc1ccccc1)NC(=O)[C@H](CCC(=O)O)NC(=O)[C@@H](NC(=O)[C@H](CCC(=O)O)NC(C)=O)[C@@H](C)O)C(=O)N[C@@H](C)C(=O)N[C@@H](Cc1c[nH]c2ccccc12)C(=O)NCC(=O)N1CCC[C@H]1C(=O)N[C@H](C(=O)N(C)CC(=O)N[C@@H](CC(=O)O)C(=O)N[C@@H](CCC(=O)O)C(=O)N[C@@H](CC(=O)O)C(N)=O)[C@@H](C)O
B5: p… (peptide)
peptide: Ac-[dP]WAIVWGPTVSRED-NH2
SMILES: CC[C@H](C)[C@H](NC(=O)[C@H](C)NC(=O)[C@H](Cc1c[nH]c2ccccc12)NC(=O)[C@H]1CCCN1C(C)=O)C(=O)N[C@H](C(=O)N[C@@H](Cc1c[nH]c2ccccc12)C(=O)NCC(=O)N1CCC[C@H]1C(=O)N[C@H](C(=O)N[C@H](C(=O)N[C@@H](CO)C(=O)N[C@@H](CCCNC(=N)N)C(=O)N[C@@H](CCC(=O)O)C(=O)N[C@@H](CC(=O)O)C(N)=O)C(C)C)[C@@H](C)O)C(C)C
B6: …(N-Me-D)ED (peptide)
peptide: Ac-ETEFIAWGPTG[NMeD]ED-NH2
SMILES: CC[C@H](C)[C@H](NC(=O)[C@H](Cc1ccccc1)NC(=O)[C@H](CCC(=O)O)NC(=O)[C@@H](NC(=O)[C@H](CCC(=O)O)NC(C)=O)[C@@H](C)O)C(=O)N[C@@H](C)C(=O)N[C@@H](Cc1c[nH]c2ccccc12)C(=O)NCC(=O)N1CCC[C@H]1C(=O)N[C@H](C(=O)NCC(=O)N(C)[C@@H](CC(=O)O)C(=O)N[C@@H](CCC(=O)O)C(=O)N[C@@H](CC(=O)O)C(N)=O)[C@@H](C)O
B7: P(N-Me-W)… (peptide)
peptide: Ac-P[NMeW]AIVWGPTVSRED-NH2
SMILES: CC[C@H](C)[C@H](NC(=O)[C@H](C)NC(=O)[C@H](Cc1c[nH]c2ccccc12)N(C)C(=O)[C@@H]1CCCN1C(C)=O)C(=O)N[C@H](C(=O)N[C@@H](Cc1c[nH]c2ccccc12)C(=O)NCC(=O)N1CCC[C@H]1C(=O)N[C@H](C(=O)N[C@H](C(=O)N[C@@H](CO)C(=O)N[C@@H](CCCNC(=N)N)C(=O)N[C@@H](CCC(=O)O)C(=O)N[C@@H](CC(=O)O)C(N)=O)C(C)C)[C@@H](C)O)C(C)C

In this assay the target is Sushi domains (SD1/2) protein of the GABAB1a (GB1a) subunit, recombinant. In words: FP competition.
Sushi domains (SD1/2) protein of the GABAB1a (GB1a) subunit, recombinant, sequence (Q9Z0U4 29-158): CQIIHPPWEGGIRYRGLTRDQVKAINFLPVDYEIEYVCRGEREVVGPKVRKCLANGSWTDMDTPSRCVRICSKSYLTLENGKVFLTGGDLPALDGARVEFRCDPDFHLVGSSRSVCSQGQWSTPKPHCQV
Take Ac-PWAIVWGPTASRED-NH2: the Ki is 318 nM. On to Ac-PAAIVWGPTVSRED-NH2, for which the Ki came to 911 nM. The figure for B1 is 29 nM. The figure for B2 is 31 nM; for Ac-PWAIVWG[dP]TVSRED-NH2 [PWAIVWGpTVSRED] it is 6860 nM. Regarding Ac-PW[dA]IVWGPTVSRED-NH2 [PWa…], the inhibition constant Ki was determined as 14100 nM. Ac-PWAAVWGPTVSRED-NH2: the Ki amounted to 46600 nM. The figure for Ac-PWAIVWGPTVS[dR]ED-NH2 […rED] is 605 nM; for B3 it is 77 nM. Consider B4, for which the Ki was found to be 132 nM. The figure for Ac-P[dW]AIVWGPTVSRED-NH2 [Pw…] is 1230 nM. Turning to Ac-PWAIVWGPTVSREA-NH2, the Ki was determined as 572 nM. For Ac-AWAIVWGPTVSRED-NH2, the Ki worked out at 552 nM. For Ac-PWAIVWGPTVSAED-NH2, the Ki was found to be 341 nM. As for Ac-PWAIVWGPTVARED-NH2, the Ki is 480 nM. Take Ac-PWAIVWGATVSRED-NH2: the Ki was found to be 1500 nM. Consider Ac-PWAIVWGPT[dV]SRED-NH2 […vSRED], for which the Ki amounted to 686 nM. Take B5: the Ki is 555 nM. For Ac-PWAIVW[dA]PTVSRED-NH2 [PWAIVWaPTVSRED], the Ki is 18100 nM. Take Ac-PWAIVWGPTV[dS]RED-NH2 […sRED]: the Ki was 552 nM. With Ac-PWAIVWAPTVSRED-NH2, the Ki was 877 nM. On to Ac-PWAIVWGPTVSRAD-NH2, for which the Ki is 600 nM. As to B6, the Ki came to 45 nM.

On to Ac-PWAIVWGPAVSRED-NH2, for which the inhibitory constant (Ki) turned out to be 1030 nM. With B7, the Ki came out at 833 nM. For Ac-PWAIVWGP[dT]VSRED-NH2 [PWAIVWGPtVSRED], the Ki came to 1300 nM.

As a reminder, the Ki is a dissociation constant, usually derived from enzyme kinetics or from competition with a known ligand.
